Positions count from the first letter of the chain named.
Assays:
[1] = target: T1, cyno-LAG3-hFc (cynomolgus monkey); assay: ELISA
T1 construct: Bought product; also called cynomolgus monkey LAG-3
Experimental: (§1) After discarding the liquid, a blocking solution of 5% skimmed milk (Bright skimmed milk powder) diluted with PBS was added at 230 μl per well, followed by incubating at 37° C. for 3 hours or 4° C. overnight (16-18 hours) for blocking. Subsequently, the blocking solution was discarded, and the micropiate was washed 5 times with PBST buffer (pH 7.4 PBS containing 0.05% tweeen-20). Then 50 μl/well of the supernatant (containing the antibody to be tested) or a starting concentration of 10 μg/ml of the antibody to be tested, which was diluted 5 times in gradient, was added, followed by incubating the mixture for 1 hour at 37° C. […] After washing the microplate 5 times with PBST, 50 μl/well TIMB chromogenic substrate (KPL, Cat. No.: 52-00-03) was added, and then incubated for […] at room temperature. Finally, 50 μl/well of 1 M H₂SO₄ was added to stop the reaction. The absorbance value at 450 nm was read by […] GO microplate reader (ThermoFisher, Cat. No.: 51119200). The clones with high affinity were selected according to the OD value or the EC₅₀ value was calculated (for antibodies with known concentrations).

[2] = target: T2, hLAG-3-D12-hFc (human, UniProt P18627 23-239); assay: ELISA
T2 construct: range 23-239
T2 sequence (looked up): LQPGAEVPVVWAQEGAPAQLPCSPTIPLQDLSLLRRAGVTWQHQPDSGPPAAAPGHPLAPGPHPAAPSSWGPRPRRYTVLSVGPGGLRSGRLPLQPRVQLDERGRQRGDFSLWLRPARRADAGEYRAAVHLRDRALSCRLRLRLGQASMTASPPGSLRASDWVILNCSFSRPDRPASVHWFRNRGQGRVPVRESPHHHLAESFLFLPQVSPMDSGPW
Experimental: as §1

[3] = target: T3, murine LAG-3 his tagged (mLAG-3-his) (mouse, UniProt Q61790 23-406); assay: ELISA
T3 construct: range 23-406; also called mouse LAG-3
T3 sequence: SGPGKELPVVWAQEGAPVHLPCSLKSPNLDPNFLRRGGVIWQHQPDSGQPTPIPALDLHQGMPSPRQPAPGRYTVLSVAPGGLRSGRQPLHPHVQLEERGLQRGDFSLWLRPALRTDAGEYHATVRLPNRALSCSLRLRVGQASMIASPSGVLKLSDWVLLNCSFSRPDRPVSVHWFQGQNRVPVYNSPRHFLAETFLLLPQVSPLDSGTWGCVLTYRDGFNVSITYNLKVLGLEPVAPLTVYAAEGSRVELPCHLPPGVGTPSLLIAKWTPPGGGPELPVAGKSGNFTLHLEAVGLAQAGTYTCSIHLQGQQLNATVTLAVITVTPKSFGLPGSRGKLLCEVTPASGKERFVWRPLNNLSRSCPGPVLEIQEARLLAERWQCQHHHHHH
Experimental: as §1

[4] = target: T4, hLAG-3-D12-his (human, UniProt P18627 23-239); assay: ELISA
T4 construct: range 23-239
T4 sequence: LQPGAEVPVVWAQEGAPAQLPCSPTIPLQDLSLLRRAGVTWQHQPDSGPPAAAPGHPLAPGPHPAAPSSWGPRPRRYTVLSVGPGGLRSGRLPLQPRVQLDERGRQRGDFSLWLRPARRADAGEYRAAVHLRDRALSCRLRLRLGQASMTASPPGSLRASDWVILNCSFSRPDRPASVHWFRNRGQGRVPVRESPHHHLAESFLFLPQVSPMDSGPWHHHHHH
Experimental: as §1

[5] = target: T5, human LAG-3-hFc (human, UniProt P18627 23-422); assay: ELISA
T5 construct: range 23-422; also called hLAG-3-hFc
T5 sequence (looked up): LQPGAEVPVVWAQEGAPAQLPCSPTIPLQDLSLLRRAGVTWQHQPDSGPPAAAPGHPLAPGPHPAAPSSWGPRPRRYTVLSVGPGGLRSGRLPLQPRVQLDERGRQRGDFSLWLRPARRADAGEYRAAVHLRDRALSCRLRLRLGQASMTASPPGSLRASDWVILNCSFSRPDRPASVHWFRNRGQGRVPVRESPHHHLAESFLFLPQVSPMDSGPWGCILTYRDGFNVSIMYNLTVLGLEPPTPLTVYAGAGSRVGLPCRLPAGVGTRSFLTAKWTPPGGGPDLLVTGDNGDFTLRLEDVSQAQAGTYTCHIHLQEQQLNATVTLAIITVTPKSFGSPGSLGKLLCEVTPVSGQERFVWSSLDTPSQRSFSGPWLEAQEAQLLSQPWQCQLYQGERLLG
Experimental: as §1

[6] = target: T6, human LAG-3 on CHO-K1 cells (hLAG-3+ cells) (human, UniProt P18627 23-525); assay: cell ELISA on fixed CHO-K1 hLAG-3+ cells
T6 construct: whole, on cells; Cells fixed in the cell ELISA; also called CHO-K1hLAG-3+ cell strain
T6 sequence (looked up): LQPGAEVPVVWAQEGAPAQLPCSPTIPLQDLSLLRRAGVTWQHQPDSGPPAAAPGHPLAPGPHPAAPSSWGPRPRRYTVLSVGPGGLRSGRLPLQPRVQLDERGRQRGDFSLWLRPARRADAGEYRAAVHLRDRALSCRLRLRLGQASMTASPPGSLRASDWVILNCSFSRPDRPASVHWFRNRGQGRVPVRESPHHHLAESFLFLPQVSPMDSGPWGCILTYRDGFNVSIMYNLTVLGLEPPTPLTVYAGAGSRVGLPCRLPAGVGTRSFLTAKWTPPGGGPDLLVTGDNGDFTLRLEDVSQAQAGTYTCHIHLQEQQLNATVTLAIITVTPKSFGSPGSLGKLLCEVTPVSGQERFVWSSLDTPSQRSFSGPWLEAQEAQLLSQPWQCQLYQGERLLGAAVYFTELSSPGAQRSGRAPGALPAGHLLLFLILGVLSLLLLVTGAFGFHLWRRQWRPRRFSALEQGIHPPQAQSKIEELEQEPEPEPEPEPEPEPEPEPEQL
Experimental: After washing with PBS (BasalMedia Biology, Cat. No.: B320) once, 5% milk was added with 230 μl per well, and the microplate was incubated for 2 hours at 37° C. for blocking, and then was washed three times with PBST. After washing, each well was added with 50 μl sample (the samples were 5-fold serially diluted with an initial concentration of 10 μg/ml). The microplate was then incubated for 1 hour at 37° C. and washed 5 times with PBST. […] After washing the microplate 5 times with PBST, 50 μl/well TMB (Sunnodic, Cat. No.: TTMB-1000-01) was added to the microplate for color development. Finally, 50 μl/well of 1M H₂SO₄ was added to stop the reaction. The microplate was then read by a microplate reader (MultiskanGO Thermo, model 511919200), and the data were analyzed using Graphpad prism 5.

B1: humanized anti-human LAG-3 antibody Ab2317 (antibody, human IgG4 S228P, kappa, V domains shown)
VH: QVQLVQSGAEVKKPGASVKVSCKASGYTFTDYEMHWVKQAPGQGLEWIGGIDPETEGIAYNQKFRGRATLTADKSTSTAYMELRSLRSDDTAVYYCTNSNYYGGREAWFAYWGQGTLVTVSS
VL: DIQMTQSPSSLSASVGDRVTITCRASQDIGSSLNWYQQKPGKAPKRLIYATSSLDSGVPSRFSGSRSGSDFTLTISSLQPEDFATYYCLQYVTSPLTFGGGTKVEIKR
notes: LG2317 / LG2343, human kappa / hIgG4
**Q.** With B1 as the binder, how does the EC50 [1] read?
**A.** The EC50 was 40.2 nM.

**Q.** And the EC50 [2]?
**A.** Its EC50 is 2.59 nM.

**Q.** Does B1 bind [3]?
**A.** Result: no binding

**Q.** And the EC50 [4]?
**A.** The EC50 was 1.71 nM.

**Q.** And the EC50 [5]?
**A.** Its EC50 is 0.25 nM.

**Q.** And the EC50 [6]?
**A.** The EC50 was 0.2 nM.

B2: humanized antibody Ab2325 (antibody, human IgG4 S228P, kappa, V domains shown)
VH: B1 VH with I48M, L70M, A72T, K74T, T97A
VL: B1 VL
notes: LG2317 / LG2348, human kappa / hIgG4
**Q.** Which results are given for B2?
**A.** EC50 [1]: 44.5 nM; EC50 [2]: 2.01 nM; binding result [3]: no binding; EC50 [4]: 1.51 nM; EC50 [5]: 0.4 nM; EC50 [6]: 0.19 nM
